Reference: publication PMC4004541, “PEG-Like Nanoprobes: Multimodal, Pharmacokinetically and Optically Tunable Nanomaterials” (PLoS ONE, 2014)

Assays:
[1] = Quantum yield of fluorochrome-bearing peptides and PN's; assay type: physicochemical; details: means±1 S.D.
Source text: (The p values showing significances are in Figure S2 in File S1). […] PEG attachment increased quantum yields in all cases, but as discussed below the magnitude of PEG generated improvement varied with the fluorochrome chosen. A mechanism for the PEG improvement of quantum yield is fluorochrome shielding, or the blocking of fluorochrome-fluorochrome interactions that result in quenching.
However, the magnitude of these benefits varied with the fluorochrome selected. […] Previous studies indicated PEGylated, fluorochrome-bearing peptides have absorption spectra in PBS similar to their unstacked absorption spectra in methanol. […] It appears that longer wavelength fluorochromes have stronger fluorochrome/fluorochrome stacking interactions, which result in more quenching, which is blocked by PEG and which gives rise to larger increases in quantum yield.

[2] = Probe size (volume) by FPLC calibrated with globular protein standards; assay type: physicochemical; details: for Volume FPLC, globular protein equivalent molecular volume: Superdex 200 10/300GL, 0.05 M sodium phosphate, 0.1 M NaCl (0.1% Tween, pH 7.2), 0.8 ml/min, calibrated with globular protein standards; for Volume FPLC Dia. (diameter): globular protein equivalent volume from FPLC converted to spherical diameter by formula (ref 15)
Source text: (§1) FPLC chromatograms are shown for PN’s bearing the IR-783 fluorochrome with PEG’s ranging from 2 to 40 kDa ( Figure 2A ). FPLC was calibrated with globular protein standards, and globular protein equivalent molecular volumes (in kDa) were obtained ( Table 1 , column 5). Next, these globular protein equivalent molecular volumes were converted to PN diameters in nm using the relationship: [drawing 1] where M is the molecular weight of a globular protein expressed in daltons. PN diameters ranged from 3.0 to 11.7 nm, which means PN’s can be smaller or larger than albumin (MW = 67 kDa; diameter = 5.4 nm, by the formula above). Thus Table 1 column 5 gives the PN volumes obtained from FPLC expressed in two ways: (i) as the molecular weight in kDa of globular proteins with equivalent volumes, permitting size comparison of PN’s to proteins, and, (ii) as spherical diameters (“Dia.”) in nm, permitting size comparisons of a PN to relative to other nanomaterials. We confirmed the sizes obtained with FPLC by measuring the size of PN(783)11.7 by dynamic light scattering (11.7 nm).
The mass spec of low molecular weight (MW) materials were obtained by MS-ESI Micromass (Waters) and high MW molecules were determined through MALDI-TOF analyses at the Tufts University Core Facility. RP-HPLC (Varian ProStar detector and delivery modules) employed an eluant A (0.1% TFA/water) and eluant B (0.1% TFA and 9.9% water in acetonitrile). Probe size (volume) was determined by FPLC using an ÄKTA Purifier 10 and SuperdexTM 200 10/300GL column (GE Healthcare) with a running buffer of 0.05 M sodium phosphate, 0.1 M NaCl (0.1% Tween, pH 7.2) and flow rate of 0.8 ml/min. Standards (GE Healthcare) were Ferritin, Ribonuclease A, Carbonic Anhydrase, and Conalbumin and Blue Dextran 2000. To obtain probe volumes, Mr (apparent molecular weight based on size exclusion retention) was plotted versus Kav. [drawing 7] , Vt = total volume, Ve = elution volume, Vo = void volume.
PN and peptide characterization: The mass spec of low molecular weights (MW) were obtained by MS-ESI Micromass (Waters) and high MW molecules were determined through MALDI-TOF analyses at the Tufts University Core Facility. RP-HPLC (Varian ProStar detector and delivery modules) employed an eluant A (0.1% TFA /water) and eluant B (0.1% TFA and 9.9% water in acetonitrile). […] Standards (GE Healthcare) were Ferritin, Ribonuclease A, Carbonic Anhydrase, and Conalbumin and Blue Dextran 2000. To obtain probe volumes, Mr (apparent molecular weight based on size exclusion retention) was plotted versus Kav. [picture] , Vt = total volume, Ve = elution volume, Vo = void volume.

[3] = Size by dynamic light scattering; assay type: physicochemical; details: Nano-ZS Zetasizer, z-average
Source text: as §1
Size by dynamic light scattering: Size was obtained on a Nano-ZS Zetasizer (Malvern, Medford, MA) and is expressed as the z-average.

HT-29 cells = test: Non-specific binding (NSB) to HT-29 cells by FACS; assay type: cell-based, human; details: 100 μL of nanoprobes (2 μM) added to 100 μl 2% FBS/DPBS, 30 min at 37 °C, means±1 S.D.
Source text: We next examined the non-specific binding (NSB) of PN’s to HT-29 cells based on the assumption that NSB minimization will correlate with a desirable minimization of post-IV injection retention. As noted above, after diagnostic drugs generate their added information, retention can only increase the risks of delayed toxicity. The attachment of PEG decreased the non-specific binding (NSB) to HT-29 cells, scored as the percent of cells above the cutoff for unstained cells seen with FACS ( Table 1 , column 7).
PN and peptide binding to cells (effect of PEGylation on NSB): HT-29, a human colon carcinoma cell line, was from the American Tissue Culture Collection and maintained according to their instructions. Cells were seeded on 24-well plates at 5X10^5 cells/well in culture medium (RPMI 1640 with 10% FBS) the day before the assay. The day of assay, medium was removed, wells rinsed twice with DPBS (+Ca, +Mg), and 100 μl of 2% FBS / DPBS (+Ca, +Mg) added. 100 μL of Nanoprobes (2 μM) in DPBS (+Ca, +Mg) was added to cells and incubated for 30min at 37 °C. (Probe concentrations were determined spectrophotometrically (783 nm, extinction coefficient of 314 471 cm^-1 M^-1 for IR-783; 497 nm, extinction coefficient of 68 000 cm^-1 M^-1 for Fluorescein; 545 nm, extinction coefficient of 150 000 cm^-1 M^-1 for Cy3). Cells were detached by Trypsin/EDTA and assayed for fluorescence by FACS (BD 7 laser LSR2 for nanoprobes with IR-783; BD 3 laser LSR2 for nanoprobes with Fluorescein or Cy3).
Figure S4: Effect of PEGylation on non-specific binding to cells by single channel FACS. […] Arrows indicates the cutoff for unstained cells.

[4] = Circulating form of PN's: FPLC of sera of injected mice; assay type: in vivo; details: 20 nmoles IV tail vein, nude mice, FPLC at 783 nm
Description: To see if the variable PN size could be translated into tunable pharmacokinetics, it was essential to first establish that PN’s circulated at PEG-determined, pre-injection dimensions. Mice were injected with PN’s and FPLC chromatograms of serum samples, taken at various times post injection ( Figures 2D, 2E and 2F ), compared with pre-injection PN samples. By using PN’s absorbing at 783 nm, chromatograms from the sera of injected mice reflect this PN, since there are no compounds in serum that absorb at this wavelength. […] Similarly, peaks for PN(783)6.1 ( Figure 2E ) and PN(783)4.3 ( Figure 2F ) where identical for pre-injection samples and for nanoprobes in the sera of injected mice. Thus, molecular weight of the PEG chosen determines PN dimensions in vitro and those dimensions are maintained after injection.
(§2) At the indicated time, 50 µl of blood was collected with microhematocrit capillary tube (Fisher Scientific) from the tail, and transferred to Eppendorf microcentrifuge tube with anticoagulant (EDTA) coating (Fisher Scientific). Tubes were centrifuged (5000 rpm for 5 min), and the supernatant was injected to the FPLC, a ÄKTA Purifier 10 with SuperdexTM 200 10/300GL column.
as §2, with “μl” for “µl”

[5] = Elimination by whole animal surface fluorescence imaging; assay type: in vivo; details: mice, after injection, n = 6
Description: Surface fluorescence images for representative animals are shown and total surface fluorescence is quantified in bar graphs to the right of the image. […] The pharmacokinetics and biodistributions of these PN’s is further analyzed below.
Figure 3 Role PEG in determining elimination by surface fluorescence imaging. A) Animals were injected with unPEGylated peptide and imaged at the times indicated. Bar graph gives whole animal surface fluorescence determined as means and standard deviations, n = 6.
(§3) A Kodak FX multispectral imaging system was used (Carestream Molecular Imaging, Rochester, NY). Excitation at multiple wavelengths (620, 650, 690, 710, 720, 730, 750 and 760 nm) with the emission at 830 nm was setup for IR-783 spectrum; Excitation at multiple wavelengths (420, 440, 460, 480, 510, 520, 530, and 540 nm) with the emission at 600 nm was setup for Cy3 spectrum; Excitation at multiple wavelengths (450, 470, 510, 520, 530, 540, 550, 570, and 590 nm) with the emission at 700 nm was setup for mCherry; with manufacturer’s software to separate (unmix) the IR-783 spectrum, Cy3 spectrum, or mCherry spectrum from skin autofluorescence and chlorophyll fluorescence from food. X-ray images were taken after fluorescence images. […]
as §3, with “Whole animal surface fluorescence imaging: All animal experiments in this work were approved by the Institutional Review Committee of the Massachusetts General Hospital. […]” for “A Kodak FX multispectral imaging system was used (Carestream Molecular Imaging, Rochester, NY).”

Row | Substance | Quant. Yield [1] | Volume FPLC, globular protein equivalent molecular volume [2] [kDa] | Volume FPLC Dia. (diameter) [2] [nm] | Size by dynamic light scattering [3] [nm] | Cell NSB: percent of HT-29 cells above the cutoff for unstained cells (HT-29 cells) [%] | Circulating size: FPLC peaks of serum samples after injection versus pre-injection sample [4] | Elimination seen by whole animal surface fluorescence [5]
1 | (DOTA)Lys(PEG40 kDa)-Cys(IR-783) [PN(783)11.7, PEG-like Nanoprobe: 40 kDa PEG, IR-783 fluorochrome, DOTA peptide] | 0.16±0.02 | 690 | 11.7 | 11.7 | 17±1 | – | –
2 | (DOTA)Lys(PEG 2 kDa)-Cys(IR-783) [PN(783)3.0, PEG-like Nanoprobe: 2 kDa PEG, IR-783 fluorochrome, DOTA peptide] | 0.13±0.02 | 11.2 | 3.0 | – | 50±1 | – | –
3 | (DOTA)Lys(PEG 5 kDa)-Cys(Cy3) [PN(545)4.3, PEG-like Nanoprobe: 5 kDa PEG, Cy3 fluorochrome, DOTA peptide] | 0.59±0.09 | 35 | 4.3 | – | 31±1 | – | –
4 | (DOTA)Lys(PEG 5 kDa)-Cys(Fl) [PN(497)4.3, PEG-like Nanoprobe: 5 kDa PEG, fluorescein, DOTA peptide] | 0.59±0.06 | 35 | 4.3 | – | 0.2±0.1 | – | –
5 | (DOTA)Lys(PEG 10 kDa)-Cys(IR-783) [PN(783)6.1, PEG-like Nanoprobe: 10 kDa PEG, IR-783 fluorochrome, DOTA peptide] | 0.16±0.03 | 100.7 | 6.1 | – | 14±1 | identical | –
6 | (DOTA)Lys(PEG 20 kDa)-Cys(IR 783) [PN(783)8.4, PEG-like Nanoprobe: 20 kDa PEG, IR-783 fluorochrome, DOTA peptide] | 0.16±0.04 | 262.5 | 8.4 | – | 14±1 | – | –
7 | (DOTA)Lys(PEG 30 kDa)-Cys(Cy3) [PN(545)10.0, PEG-like Nanoprobe: 30 kDa PEG, Cy3 fluorochrome, DOTA peptide] | 0.61±0.10 | 435 | 10.0 | – | 15±1 | – | –
8 | (DOTA)Lys-Cys(Cy3) [unPEGylated DOTA peptide with Cy3 fluorochrome on the cysteine side chain] | 0.32±0.07 | – | – | – | 98±1 | – | –
9 | (DOTA)Lys-Cys(Fl) [unPEGylated DOTA peptide with fluorescein on the cysteine side chain] | 0.50±0.11 | – | – | – | 0.4±0.1 | – | –
10 | (DOTA)Lys-Cys(IR-783) [unPEGylated DOTA peptide with IR-783 fluorochrome on the cysteine side chain] | 0.053±0.008 | – | – | – | 95±1 | – | slow and incomplete elimination
